Reference: patent US20240269271A1

What was measured:
[1] = target: HVEM; test: competition ELISA, plates coated with BTLA, HVEM binding read out
[2] = target: HVEM; test: competition ELISA, plates coated with BTLA, HVEM binding read out; control protein

Substance	percent inhibition of HVEM binding to BTLA [1]	percent inhibition of HVEM binding to BTLA [2]
commercially available gD protein (ligand)	90%	
sequence of the V2 loop of HIV envelope linked to a His-tag		45%
